Assay: yeast display, Sf9 membrane polyspecificity reagent, FACS + sequencing; frameworks hold sequencing errors
Summary of the method: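 A synthetic nanobody library was expressed on Saccharomyces cerevisiae BJ5465 by galactose induction for 36–48 hours. The library was stained for 1 hour at 4 °C with 10% biotinylated, detergent-solubilized Sf9 membrane reagent and enriched with streptavidin microbeads before FACS. Low and high (top ~1%) gates were set on anti-HA fluorescence for expression and streptavidin fluorescence for reagent binding, and each polyreactivity label reflects the gate of origin.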

| Sequence | polyreactivity (PSR sort gate) |
| --- | --- |
| QVQLVESGGGLVQAGGSLRLSCAASGSTSVGNAMGWYRQAPGKERELVAAMSRIGGTTYYADSVKGRFTISRDNAKNTVYLQMNSLKPEDTAVYYCNVLKRYWSGRVDYWGQGTQVTVSS | high polyreactivity |
| QVQLVESGGGLVQAGGSLRLSCAASGSTSVKYAMGWYRQAPGKERELVAAIRKRGDSTYYADSVKGRFTISRDNAKNTVYLQMNSLKPEDTAVYYCAAQYLRGRGYWGQGTQVTVSS | low polyreactivity |
| QVQLVESGGGLVQAGGSLRLSCAASGSTSVKYAMGWYRQAPGKERELVAAIRKRGDSTYYADSVKGRFTISRDNAKYSVYLQMNSLKAEDTAVYYCAAQYLRGRGYWGQGTQVTVSS | low polyreactivity |
| QVQLVESGGGLVQAGGSLRLSCAASGSTSVPYTMGWYRQAPGKERELVAAISSSGGTTNYAVSVKGRFTISRDNAKNTVSLQMNSLKPEDTAVYYCAAEYYQWVAYSWNEMYYWGQGTQVTVSS | low polyreactivity |
| QVQLVESGGGLVQAGGSLRLSCAASGSTSVQYAMGWYRQAPGKERELVAAIDRSGGSTSYADSVKGRFTISRDNAKNTVYLQMNTLKPEDTAVYYCNADPVRSTYSYDYWGQGTQVTVSS | low polyreactivity |
| QVQLVESGGGLVQAGGSLRLSCAASGSTSVTNAMGWYRQAPGKEREFFATINYSGTSTYYADSVKGRFTISRDNAKNTVYLQMNSLNPEDTAVYYCYAHDFGFYRFSLPGYDYWGQGTQVTVSS | low polyreactivity |
| QVQLVESGGGLVQAGGSLRLSCAASGSTSYFNVMGWYRQAPGKERELVAAISWSGGSTYADSVKGRFTISRDNAKNTVYLQMNSLKPEDTAVYYCNKDYGYVQLRFYGPGYYWGQGTQVTVSS | low polyreactivity |
| QVQLVESGGGLVQAGGSLRLSCAASGSTSYGYAMGWYRQAPGKERELVAAISRTDRTYYADSVKGRFTISRDNAKNTVYLQMNSLKPEDTAVYYCTAVLVGRAEYYYWGQGTQVTVSS | high polyreactivity |
| QVQLVESGGGLVQAGGSLRLSCAASGSTSYIYAMGWYRQAPGKERELVAAISKSGGRTYYADSVKGRFTISRDNAKNTVYLQMNSLKPEDTAVYYCAAVPGRTAEDYGEDYWGQGTQVTVSS | high polyreactivity |
| QVQLVESGGGLVQAGGSLRLSCAASGSTSYNMGWYRQAPGKERELVAAISYRGGRTYYADSVKGRFTISRDNAKNTVYLQMNSLKPEDTAVYYCAKGIFDTFDSWGQGTQVTVSS | low polyreactivity |
| QVQLVESGGGLVQAGGSLRLSCAASGSTVDWNAMGWYRQAPGKERELVAGITFRSGSTYYADSVKGRFTISRDNAKNTVYLQMNSLKPEDTAVYYCNVKLYYYYFRMYYWGQGTQVTVSS | low polyreactivity |
| QVQLVESGGGLVQAGGSLRLSCAASGSTVEYNAMGWYRQAPGKERELVASSTNYADSVKGRFTISRDNAKNTVYLQMNSLKPEDTAVYYCAASSLPHDSYRHSYLYEYWGQGTQVTVSS | low polyreactivity |
| QVQLVESGGGLVQAGGSLRLSCAASGSTVEYYAMGWYRQAPGKERELFAAISSGPSTTYADSVKGRFTISRDNAKNTVYLQMYSLKREDTAVYYCARLDGTTQALFGYDYWGQGTQVTVSS | low polyreactivity |
| QVQLVESGGGLVQAGGSLRLSCAASGSTVGYYDMGWYRQAPGKERELVATITKSGGTTRYADSVKGRFTISRDNAKNTVYLQMNSLKPEDTAVYYCAADGTWRLLDDYWGQGTQVTVSS | low polyreactivity |
| QVQLVESGGGLVQAGGSLRLSCAASGSTVSPNAMGWDRPAPGKERELVAAITYRGANTYYADSVKGRFTISRDNAKNTVYLQMNSLKPEDTAVYYCAATYGSWISLRFYWGQGTQVTVSS | low polyreactivity |
| QVQLVESGGGLVQAGGSLRLSCAASGSTVVYYAMGWYRQAPGKERELVAAISSSGGTTYYADSVKGRFTISRDNAKNRVYLQMKSLKPEDTAVYYCAAPYASRGNEYWGQGTQVTVSS | high polyreactivity |
| QVQLVESGGGLVQAGGSLRLSCAASGSTWWYDMGWSRQAPGKERELVASISSGDSTNYADSVKGRFTISRDNAKNTVYLQMNSLKPEDTAVYYCAADKNSRPAGKGSTGYGYDYWGQGTQVNVSS | low polyreactivity |
| QVQLVESGGGLVQAGGSLRLSCAASGSTYATNAMRWYRQAPGKERELVATISWSGGSTYYADSVKGRFTISRDNAKNTVYLQMNSLKPEDTAVYYCAADWSNLGAYDYWGQGTQVTVSS | low polyreactivity |
| QVQLVESGGGLVQAGGSLRLSCAASGSTYFRNAMGWYRQAPGKERELVAAISSSCGSTYYADSVKGRFTISRDNAKNTVYLQMTSLKPEDTAVYYCNADWYYAGYGYWGQGTQVTVSS | low polyreactivity |
| QVQLVESGGGLVQAGGSLRLSCAASGSTYGIYAMGWYRQAPGKERELVAAITLRTDSTYYADSVKGRFTISRDNAKNTVYLQMNSLKPEVTAVYYCARRYRYGYDYWGQGTQVTVSS | low polyreactivity |
| QVQLVESGGGLVQAGGSLRLSCAASGSTYHYAMGWYRQAPGKERELVASITWRGDTTYYADSVKGRFTISRDNAKNTVYLQMNSLKPEDTAVYYCAARKFFRQGGKRYDYWGQGTQVTVSS | high polyreactivity |
| QVQLVESGGGLVQAGGSLRLSCAASGSTYRGYAMGWYRQAPGKERELVAAISWTGGSTYNADSVKGRYTISRDNAKNTVYLQMNSLKPEDTAVYYCNTYVKDWGGYSYRYRYYYWGQGTQVTVSS | high polyreactivity |

| Sequence | polyreactivity (PSR sort gate) |
| --- | --- |
| QVQLVESGGGLVQAGGSLRLSCAASGSTYRYTMGWYRPAPGKERELVAAITGSAGSTYYADSVKGRFTISRDNAKNTVYLQMHSLKPEDTAVYYCNKVRPRKFWDYYYWGQGTQVTVSS | high polyreactivity |
| QVQLVESGGGLVQAGGSLRLSCAASGSTYRYYAMGWYRQAHGKERELVAAINSSCGSTYYADSVKGRFTISRDNAKNTVYLQMNSLKPEDTAVYYCATVYAYTGWLTNPREYSRYDYWGQGTQVTVSS | low polyreactivity |
| QVQLVESGGGLVQAGGSLRLSCAASGSTYVSNAMGWYRQAPGKERELVAAISTSGGTTYYADSVKGRFTISRDNAKNTVYLQMNSLKPEDTAVYYCAADYKAYGRSYDYWGQGTQVTVSS | low polyreactivity |
| QVQLVESGGGLVQAGGSLRLSCAASGSTYYGNAMGWYRQAPGKERQLVAAIRSRGGSTYYADSVKGRFTISRDNAKNTVYLQMNSLKPEDPAVYYCDAKQPSWKYAYYYWGQGTQVTVSS | high polyreactivity |
| QVQLVESGGGLVQAGGSLRLSCAASGSTYYNAMGWYRQAPGKERELVAAIRFRYGSTYYADSVKGRFTISRDNAKNSVYLQMNSLKPEDTAVYYCADDNKRSWRYAYNYWGHGTQVTVSS | high polyreactivity |
| QVQLVESGGGLVQAGGSLRLSCAASGSTYYTYAMGWYRQAPGKERELVAAIRGRGGRTYYADSVKGRFTISRDNAKNTVYLQMNSLKPEDTAVYYCNADGYAYYRATTRFDYWGQGTQVTVSS | high polyreactivity |
| QVQLVESGGGLVQAGGSLRLSCAASGSYLRYYAMGWYRPARGKERELVAAISRSGTNTYYAHSVKGRFTISRDNAKNTVYLQMNSLKPEDTAVYYCAARGYYRDYDSWGQGTQVTVSS | high polyreactivity |
| QVQLVESGGGLVQAGGSLRLSCAASGTFFIYAMGWYRPAPGKERELVDTISTGGSTNYADSVKGRFTISRDNAKNTVYLQMNSLKPEDTAVYSCAAEWLYPHDGGYPRPMDYWGQGTQVTVSS | low polyreactivity |
| QVQLVESGGGLVQAGGSLRLSCAASGTFKWYAMGWYSQAPGKERELDAVISSSGGTTYYADSVKGRFTISRDNAKNTVYLQMNSLKPEDTAVYYCNKRFRSWTTGSPYDYWGQGTQVTVSS | high polyreactivity |
| QVQLVESGGGLVQAGGSLRLSCAASGTFQSYAMGWNRQAPGKERELVAAISRSGASTYYADSVKGRFTISRDNAKNTVYLQMISLKPEDTAVYYFAARKTSKYYYWGQGTQVTVSS | high polyreactivity |
| QVQLVESGGGLVQAGGSLRLSCAASGTFWLYTMGWYRQAPGKERELVAAISLTAGNTYYADSVKGRFTISRDNAKYTVYLQMNSLKPEDTAVYYCAADHYYYTRYEYWGQGTQVTVSS | low polyreactivity |
| QVQLVESGGGLVQAGGSLRLSCAASGTFYGNTMGWYRQAPGKERELVAVISIDVSTNYADSVKGRFTISRDNAKNTVYLQMNSLKPEDTAVYYCAADYLRQFRDYDYWGQGTQVTVSS | low polyreactivity |
| QVQLVESGGGLVQAGGSLRLSCAASGTFYYAMGWYRQAPGKEREFVAAISWRGGTTYYADSVKGRFTMSRDNAKNTVYLQMNSLKPEDTAVYYCATAPYVTSRRYGPYEYWGQGTQVTVSS | low polyreactivity |
| QVQLVESGGGLVQAGGSLRLSCAASGTIFGPNAMGWYRKAPGTERELVAAITLSGGSTYYSDSVKGRFTISRDNAKNTVYLPMNSLKPEDTAVYYCAAGPDYGWRRYDYWGQGTQVTVSW | low polyreactivity |
| QVQLVESGGGLVQAGGSLRLSCAASGTIFLWYAMGWYIQAPGKERELVASITRGGNTYYADSVKGRFTISRDNAKNTVYLQMISLKPEDTAVYYCAAVSRFWRVPYTYDYWGQGTHVTVSS | low polyreactivity |
| QVQLVESGGGLVQAGGSLRLSCAASGTIFTVYALGWYRQPPGKERELVAGISSGAGTTYADSVKGRFTISRDNAKNTVYLQMNSMKPEDTAVYYCAAYTWDTDHYWYGYVPYDYWGQGTQVTVSS | low polyreactivity |
| QVQLVESGGGLVQAGGSLRLSCAASGTIFWIYAMGWYRQAPGKERELVATITRRGGSTYYADSVKGRFTISRDNATNTVYLQMNSLKPEDTAVYFCATEPGYTYLTSYKYDYWGQGTQVTVSS | low polyreactivity |
| QVQLVESGGGLVQAGGSLRLSCAASGTIFYGNAMGWYRQAPGKEREYVAAITYSGGSTYYADSVKGRFSISRDNAKNTVYLQMNSLKPEDTAVYYCAKAYYPKGRYGFDYWGQGTQVTVSS | high polyreactivity |
| QVQLVESGGGLVQAGGSLRLSCAASGTITSYAMGWYRQAPGKERELVASIRYRGGSTYYADSVKGRFTISRDNAKNTVYLQMNSLKPEDTAVYYCAADNFAPEFYYWGQGTQVTVSS | low polyreactivity |
| QVQLVESGGGLVQAGGSLRLSCAASGTLATYAMGWYRQAPGKERELVAAIRYSDGRTYYADSVKGRFTISRDNAKNTFYLQMNSLKPEDTAVYYCAASFRGRGKKLDYWGQGTQVTVSS | low polyreactivity |
| QVQLVESGGGLVQAGGSLRLSCAASGTNQGVNAMGWYRQAPGKEREFDAAITGRGGNTYYADSVKGRYTISRDNAKNTVYLQLNSLKPDDTAVYYCAARVKDTRYQSMLDYFYWGQGTEVTVSS | high polyreactivity |
